Test results reported in patent US20090324538A1.

Key:
[1] = target: heterotrimeric IL-15R (αβγc chains) on CTLL-2 cells (UniProt Q60819); experiment: cell-based or functional assay
[2] = target: IL-15Rβγc receptors on 32Dβ cells; experiment: cell-based or functional assay

UniProt Q60819, sequence (Q60819 33-263, chain 1 of 3): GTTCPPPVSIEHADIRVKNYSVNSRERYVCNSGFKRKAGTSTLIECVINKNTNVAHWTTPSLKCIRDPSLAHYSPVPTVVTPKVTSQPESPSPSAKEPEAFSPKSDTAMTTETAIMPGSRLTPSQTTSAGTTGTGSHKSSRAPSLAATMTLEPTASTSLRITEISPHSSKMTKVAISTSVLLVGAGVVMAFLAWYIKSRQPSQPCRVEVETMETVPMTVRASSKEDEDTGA
UniProt Q60819, sequence (P16297 27-539, chain 2 of 3, further chain): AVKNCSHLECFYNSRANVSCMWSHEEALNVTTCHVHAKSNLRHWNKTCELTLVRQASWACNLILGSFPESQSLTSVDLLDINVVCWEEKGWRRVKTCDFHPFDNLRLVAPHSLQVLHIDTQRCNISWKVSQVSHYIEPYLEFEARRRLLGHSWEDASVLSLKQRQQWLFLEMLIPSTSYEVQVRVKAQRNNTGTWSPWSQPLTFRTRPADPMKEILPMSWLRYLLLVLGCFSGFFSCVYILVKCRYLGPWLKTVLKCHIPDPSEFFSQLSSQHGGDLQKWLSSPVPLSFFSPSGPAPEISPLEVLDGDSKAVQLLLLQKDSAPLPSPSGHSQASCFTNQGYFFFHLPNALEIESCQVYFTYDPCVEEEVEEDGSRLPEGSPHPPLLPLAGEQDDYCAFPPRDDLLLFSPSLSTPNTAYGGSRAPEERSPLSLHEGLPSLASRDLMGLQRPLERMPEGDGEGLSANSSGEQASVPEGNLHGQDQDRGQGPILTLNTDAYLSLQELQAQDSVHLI
UniProt Q60819, sequence (P34902 23-369, chain 3 of 3, further chain): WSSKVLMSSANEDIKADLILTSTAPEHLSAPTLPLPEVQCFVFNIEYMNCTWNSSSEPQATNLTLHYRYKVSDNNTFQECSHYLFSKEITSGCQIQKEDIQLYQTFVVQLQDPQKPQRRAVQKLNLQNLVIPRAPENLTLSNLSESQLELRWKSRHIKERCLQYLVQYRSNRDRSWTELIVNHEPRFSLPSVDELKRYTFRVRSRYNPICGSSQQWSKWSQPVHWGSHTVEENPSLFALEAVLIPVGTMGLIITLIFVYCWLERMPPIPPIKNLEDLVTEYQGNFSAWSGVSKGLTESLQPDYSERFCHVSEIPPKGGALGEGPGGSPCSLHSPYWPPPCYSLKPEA

Substance | inhibition of c264scTCR/huIL15 stimulatory activity on CTLL-2 proliferation after complex formation [1] | proliferation of 32Dβ cells (WST-1), lowest concentration with biological activity [2]
c264scTCR/huIL15+c264scTCR/huIL15RαΔE3 fusion protein complex (from UniProt Q13261 31-205) | 4 fold | –
c264scTCR/huIL15N72D fusion protein (from UniProt P01857 99-113) | – | 80 pM
